Source: patent publication US20200087363A1 (IMMATICS BIOTECHNOLOGIES, published 2020)

molecular target: T1, HLA-B*44:05 (human); test: UV peptide exchange, anti-b2m ELISA
T1 construct: also called peptide-receptive MHC class I molecule
Outline: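 Peptide-receptive HLA-B*44:05 monomers after UV-induced exchange were diluted 100-fold and captured on streptavidin-coated plates for 1 h at 37 °C. Bound complexes were detected with 2 µg/ml HRP-anti-β2m (1 h, 37 °C) and TMB, read at 450 nm. β2m signal reflects peptide-stabilized complex yield.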

| Binder | peptide exchange yield |
| --- | --- |
| MEVDPIGHLYIF | > 75% |
| AELEGALQKA | 20 to 50% |
| KEPSQSCIAQY | 10 to 20% |
| KEFYPVKEF | 20 to 50% |
| AELFLTKSF | > 75% |
| EESLLSSW | 50 to 75% |
| AAFEDAQGHIW | > 75% |
| EEIFKTLNY | 50 to 75% |
| MDELEEGESY | 10 to 20% |
| ELVHMINW | 20 to 50% |
| GEARGDQVDW | > 75% |
| GEGTLRLSW | > 75% |
| GEKATMQNL | 20 to 50% |
| AETSYVKVLEY | 50 to 75% |
| EESLLSSWDF | 50 to 75% |
| EENIVAIGI | 50 to 75% |
| LETSCGSSTAY | 10 to 20% |

Now from value to binder:

| peptide exchange yield | Binder |
| --- | --- |
| 50 to 75% | QTLKAMVQAW |
| 50 to 75% | TEQSLYYRQW |
| 50 to 75% | QETNKVETY |
| 20 to 50% | SLAELIAKDW |
| 50 to 75% | TEFSNHINL |
| 50 to 75% | QETLAESTW |
| 20 to 50% | RLNEHPSNNW |
| 50 to 75% | SEAGLTANQY |
| 20 to 50% | YQENPRAAW |
| 50 to 75% | SEESAGPLL |
| 50 to 75% | SVISDSPRSW |
| > 75% | SECVKSLSF |
| 50 to 75% | TEAQRLDCW |
| 50 to 75% | SEIDEKVTDL |
| > 75% | TELADLDAAW |
| 50 to 75% | SEENTGKTY |
| 50 to 75% | TEGGTQKTF |
| 20 to 50% | SEYPTKNYV |
